This experiment deals with the RBD of spike (depending on domain and variant). Kind of experiment: ELISA.

We go through one substance from paper PMC9595563.

Sequence of LRRC15-Fc (Q8TF66 22-538): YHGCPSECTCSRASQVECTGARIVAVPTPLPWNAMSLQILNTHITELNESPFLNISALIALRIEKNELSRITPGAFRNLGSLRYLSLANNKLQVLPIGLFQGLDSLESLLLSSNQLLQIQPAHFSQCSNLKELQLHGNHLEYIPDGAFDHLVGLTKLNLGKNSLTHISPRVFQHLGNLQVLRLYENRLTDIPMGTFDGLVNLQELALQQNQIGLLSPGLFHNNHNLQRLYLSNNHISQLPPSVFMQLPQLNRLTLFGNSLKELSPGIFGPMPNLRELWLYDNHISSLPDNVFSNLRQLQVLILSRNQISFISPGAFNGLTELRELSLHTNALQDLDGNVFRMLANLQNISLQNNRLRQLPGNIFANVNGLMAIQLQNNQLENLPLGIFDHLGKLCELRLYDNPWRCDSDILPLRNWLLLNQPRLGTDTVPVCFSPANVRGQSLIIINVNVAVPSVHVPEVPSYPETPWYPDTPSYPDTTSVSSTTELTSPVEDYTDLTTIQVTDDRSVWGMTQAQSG

Turning to “LRRC15-Fc (from UniProt Q8TF66) (Fc fusion)”, the dissociation constant Kd lay within 43 to 148 nM.
